Laboratory results published in article PMC5779224 (2017).

T1: AnkB 28–847 (MBD + partial AI-c) (human, UniProt Q01484-2 28-847)
T1 chain: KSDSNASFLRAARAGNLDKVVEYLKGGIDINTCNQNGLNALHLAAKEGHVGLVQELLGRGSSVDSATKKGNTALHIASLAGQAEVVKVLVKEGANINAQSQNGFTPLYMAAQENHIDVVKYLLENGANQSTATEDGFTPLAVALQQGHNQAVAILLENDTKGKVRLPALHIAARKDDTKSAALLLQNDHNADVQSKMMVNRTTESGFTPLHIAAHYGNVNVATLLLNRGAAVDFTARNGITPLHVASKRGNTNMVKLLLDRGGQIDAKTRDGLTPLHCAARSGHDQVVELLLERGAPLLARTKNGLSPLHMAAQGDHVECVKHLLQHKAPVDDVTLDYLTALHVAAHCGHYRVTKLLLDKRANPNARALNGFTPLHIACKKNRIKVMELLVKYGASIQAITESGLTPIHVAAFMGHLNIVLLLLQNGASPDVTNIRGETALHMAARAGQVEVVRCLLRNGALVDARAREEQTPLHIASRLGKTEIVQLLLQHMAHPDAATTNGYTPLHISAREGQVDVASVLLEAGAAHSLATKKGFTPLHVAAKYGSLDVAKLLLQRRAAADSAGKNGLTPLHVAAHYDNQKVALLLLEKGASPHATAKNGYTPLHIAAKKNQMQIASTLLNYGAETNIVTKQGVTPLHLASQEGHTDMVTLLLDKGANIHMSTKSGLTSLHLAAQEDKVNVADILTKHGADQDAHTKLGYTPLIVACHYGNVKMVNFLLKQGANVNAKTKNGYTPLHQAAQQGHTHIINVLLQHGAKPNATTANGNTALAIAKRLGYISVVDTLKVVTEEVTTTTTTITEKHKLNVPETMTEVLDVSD

T2: AnkB_MBD (AnkB ANK repeats only, aa 28–827) (human, UniProt Q01484-2 28-827)
T2 chain: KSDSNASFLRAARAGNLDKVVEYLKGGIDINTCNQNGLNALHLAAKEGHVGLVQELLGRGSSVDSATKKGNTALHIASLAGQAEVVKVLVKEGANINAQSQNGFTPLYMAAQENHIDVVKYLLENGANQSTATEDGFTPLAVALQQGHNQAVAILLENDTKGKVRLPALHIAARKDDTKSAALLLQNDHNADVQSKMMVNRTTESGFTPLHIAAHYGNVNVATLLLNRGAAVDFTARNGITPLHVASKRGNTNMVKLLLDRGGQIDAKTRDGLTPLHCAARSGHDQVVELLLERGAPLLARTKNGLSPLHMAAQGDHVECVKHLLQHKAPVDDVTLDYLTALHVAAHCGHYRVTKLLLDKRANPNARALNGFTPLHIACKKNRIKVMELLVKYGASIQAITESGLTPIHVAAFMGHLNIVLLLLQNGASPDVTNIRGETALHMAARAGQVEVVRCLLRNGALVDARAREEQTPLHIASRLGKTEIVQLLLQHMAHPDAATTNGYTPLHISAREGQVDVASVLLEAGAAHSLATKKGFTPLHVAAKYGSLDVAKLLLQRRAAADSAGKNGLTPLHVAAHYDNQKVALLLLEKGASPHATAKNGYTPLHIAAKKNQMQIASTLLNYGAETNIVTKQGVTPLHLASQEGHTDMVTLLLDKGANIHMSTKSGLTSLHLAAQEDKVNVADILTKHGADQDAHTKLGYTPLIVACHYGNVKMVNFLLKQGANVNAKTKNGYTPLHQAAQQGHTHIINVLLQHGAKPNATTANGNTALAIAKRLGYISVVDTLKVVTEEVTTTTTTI

T3: AnkG 38–855 (AnkG MBD-AI-c protein; MBD + partial AI-c) (rat, UniProt O70511-1 38-855)
T3 chain: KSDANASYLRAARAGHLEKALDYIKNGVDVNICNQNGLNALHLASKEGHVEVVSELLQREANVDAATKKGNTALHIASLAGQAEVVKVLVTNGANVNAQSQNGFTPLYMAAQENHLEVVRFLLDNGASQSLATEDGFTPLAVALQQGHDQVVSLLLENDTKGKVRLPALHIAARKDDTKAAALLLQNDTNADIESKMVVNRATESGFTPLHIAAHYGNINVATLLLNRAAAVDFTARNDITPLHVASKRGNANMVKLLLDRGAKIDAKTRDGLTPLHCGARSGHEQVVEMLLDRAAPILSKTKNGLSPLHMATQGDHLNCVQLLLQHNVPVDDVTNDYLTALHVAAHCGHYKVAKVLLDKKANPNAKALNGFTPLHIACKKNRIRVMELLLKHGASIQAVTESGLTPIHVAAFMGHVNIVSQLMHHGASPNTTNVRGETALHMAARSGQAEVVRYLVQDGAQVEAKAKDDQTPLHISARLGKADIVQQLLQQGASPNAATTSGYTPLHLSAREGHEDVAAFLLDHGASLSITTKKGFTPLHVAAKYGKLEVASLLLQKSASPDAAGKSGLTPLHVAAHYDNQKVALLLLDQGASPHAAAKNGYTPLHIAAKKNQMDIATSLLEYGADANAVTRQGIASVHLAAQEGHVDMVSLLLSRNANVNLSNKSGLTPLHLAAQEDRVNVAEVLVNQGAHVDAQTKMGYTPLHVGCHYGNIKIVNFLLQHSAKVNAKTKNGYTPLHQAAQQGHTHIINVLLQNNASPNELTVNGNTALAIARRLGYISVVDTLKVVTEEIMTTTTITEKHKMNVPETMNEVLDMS

T4: AnkB 28–965 (MBD + AI-c + AI-b) (human, UniProt Q01484-2 28-965)
T4 chain: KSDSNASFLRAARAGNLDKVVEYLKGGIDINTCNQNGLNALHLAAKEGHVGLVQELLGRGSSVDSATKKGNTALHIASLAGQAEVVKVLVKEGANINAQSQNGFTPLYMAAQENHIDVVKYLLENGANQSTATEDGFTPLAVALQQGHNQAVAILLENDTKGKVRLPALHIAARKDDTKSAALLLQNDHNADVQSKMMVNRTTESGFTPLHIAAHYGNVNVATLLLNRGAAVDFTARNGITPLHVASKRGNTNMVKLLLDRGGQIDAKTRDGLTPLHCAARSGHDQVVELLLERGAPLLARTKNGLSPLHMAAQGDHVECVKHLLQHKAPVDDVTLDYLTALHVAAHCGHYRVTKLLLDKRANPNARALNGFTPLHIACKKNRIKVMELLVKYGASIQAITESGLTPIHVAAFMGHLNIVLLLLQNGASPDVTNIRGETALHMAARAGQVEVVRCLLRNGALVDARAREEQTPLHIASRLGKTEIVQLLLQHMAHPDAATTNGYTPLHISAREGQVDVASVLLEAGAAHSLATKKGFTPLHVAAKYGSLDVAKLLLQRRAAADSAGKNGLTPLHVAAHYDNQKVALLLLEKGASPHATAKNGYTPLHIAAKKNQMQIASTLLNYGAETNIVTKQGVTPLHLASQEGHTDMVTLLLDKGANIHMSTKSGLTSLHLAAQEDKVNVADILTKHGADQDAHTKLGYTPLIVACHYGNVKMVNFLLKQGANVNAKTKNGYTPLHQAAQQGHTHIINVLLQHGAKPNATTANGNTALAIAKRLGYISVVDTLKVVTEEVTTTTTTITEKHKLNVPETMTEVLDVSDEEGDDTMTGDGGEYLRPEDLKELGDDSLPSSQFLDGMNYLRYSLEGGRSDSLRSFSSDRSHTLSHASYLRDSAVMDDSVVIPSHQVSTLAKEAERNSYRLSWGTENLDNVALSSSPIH

T5: AnkG 38–903 (MBD + AI-c + AI-b) (rat, UniProt O70511-1 38-903)
T5 chain: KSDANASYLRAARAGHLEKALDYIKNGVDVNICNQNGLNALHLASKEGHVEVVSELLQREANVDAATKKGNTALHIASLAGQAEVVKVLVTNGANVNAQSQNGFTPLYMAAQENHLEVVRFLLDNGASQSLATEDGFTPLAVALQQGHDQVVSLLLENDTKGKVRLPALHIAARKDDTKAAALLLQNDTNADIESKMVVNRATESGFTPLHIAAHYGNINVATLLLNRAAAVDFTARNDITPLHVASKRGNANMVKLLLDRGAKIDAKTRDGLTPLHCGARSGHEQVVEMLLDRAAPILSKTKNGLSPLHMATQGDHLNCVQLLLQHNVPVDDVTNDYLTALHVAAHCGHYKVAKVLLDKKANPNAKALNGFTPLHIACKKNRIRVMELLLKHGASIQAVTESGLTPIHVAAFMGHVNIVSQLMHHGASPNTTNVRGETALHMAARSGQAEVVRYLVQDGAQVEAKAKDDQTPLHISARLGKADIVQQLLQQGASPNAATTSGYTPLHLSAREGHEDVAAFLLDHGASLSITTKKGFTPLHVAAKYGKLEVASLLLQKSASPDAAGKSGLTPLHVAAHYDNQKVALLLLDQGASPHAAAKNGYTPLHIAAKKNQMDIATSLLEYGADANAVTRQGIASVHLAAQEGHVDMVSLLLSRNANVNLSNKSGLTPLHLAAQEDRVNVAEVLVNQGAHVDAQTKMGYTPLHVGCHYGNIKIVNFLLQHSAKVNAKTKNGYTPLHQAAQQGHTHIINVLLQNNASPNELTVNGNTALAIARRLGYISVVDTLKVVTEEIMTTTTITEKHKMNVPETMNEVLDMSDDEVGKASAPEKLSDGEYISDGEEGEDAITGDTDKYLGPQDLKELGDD

B1: AnkB 828-896 (protein)
chain: TEKHKLNVPETMTEVLDVSDEEGDDTMTGDGGEYLRPEDLKELGDDSLPSSQFLDGMNYLRYSLEGGRS
B2: Nav1.2 (aa 1035–1129) (domain or fragment)
chain: KALDEIKPLEDLNNKKDSCISNHTTIEIGKDLNYLKDGNGTTSGIGSSVEKYVVDESDYMSFINNPSLTVTVPIAVGESDFENLNTEEFSSESDM

Experiments:
[1] = molecular target: T1, AnkB 28–847 (MBD + partial AI-c); test: ITC
[2] = molecular target: T2, AnkB_MBD (AnkB ANK repeats only, aa …); test: ITC
[3] = molecular target: T3, AnkG 38–855 (AnkG MBD-AI-c protein; MBD …); test: ITC
[4] = molecular target: T4, AnkB 28–965 (MBD + AI-c + AI-b); test: ITC
[5] = molecular target: T5, AnkG 38–903 (MBD + AI-c + AI-b); test: ITC
[6] = molecular target: T1, AnkB 28–847 (MBD + partial AI-c); test: ITC; AnkB 874-965

Row | Binder | Kd [1] [µM] | Kd [2] [µM] | Kd [3] [nM] | also measured
1 | B1 | 2.7 |  |  | 
2 | SLPSSQFLDGMNYLRYSLEGGRS [AnkB 874-896] | 13 |  |  | 
3 | TEKHKLNVPETQTEVLDVSDEEGDD (domain or fragment) [AnkB_AI-c Met839Gln] |  | 4.4 |  | 
4 | TEKHKLNVPETMTEVQDVSDEEGDD (domain or fragment) [AnkB_AI-c Leu843Gln] |  | 3.9 |  | 
5 | TEKHKLKVPETMTEVLDVSDEEGDD (domain or fragment) [AnkB_AI-c Asn834Lys] |  | 2.7 |  | 
6 | SDGEEGEDAITGDTDKYLGPQDLKELGDD (domain or fragment) [AnkG_AI-b (aa 875–903)] |  |  | 3500 | 
7 | KASAPEKLSDGEYISDGEEGEDAITGDTDKYLGPQDLKELGDD [AnkG 861-903] |  |  | 1100 | 
8 | EDLKELGDDSLPSSQFLDGMNALRYSLEGGRS (domain or fragment) [AnkB_AI-b Tyr886Ala] | 16 |  |  | 
9 | B2 |  |  | 250 | Kd [4]: 5.8 µM; Kd [5]: 1500 nM
10 | SLPSSQFLDGMNYLRYSLEGGRS (domain or fragment) [AnkB AI-b fragment with residues 865 to 873 deleted] |  |  |  | Kd [6]: 17 µM
